B1: VDR (parent)
chain: VTLELSQLSMLPHLADLVSYSIQK

Variants of: B1
Assay: protein stability index of a GFP-peptide fusion (GPS, HEK-293T) (PSI 1-6); higher = more stable
Conditions: c terminus: a fixed tail appended
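Also: lentivirally expressed fusions sorted by FACS into six bins by GFP to DsRed ratio, PSI derived from sequencing read proportions per bin multiplied by bin number.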

**Q.** For VTLELSQLSMLPHLIDLVSYSIQK [A15I], which protein stability index is on record?
**A.** 3.26

**Q.** Which protein stability index does the source give for VTLELSQLSMLPHLKDLVSYSIQK [A15K] here?
**A.** 2.64

**Q.** For VTLELSQLSMLPHLLDLVSYSIQK [A15L], which protein stability index is on record?
**A.** 3.63

**Q.** For VTLELSQLSMLPHLMDLVSYSIQK [A15M], which protein stability index is on record?
**A.** 2.78

**Q.** For VTLELSQLSMLPHLNDLVSYSIQK [A15N], which protein stability index is on record?
**A.** 2.99

**Q.** With VTLELSQLSMLPHLPDLVSYSIQK [A15P] as the variant, how does the protein stability index read?
**A.** 2.1

**Q.** With VTLELSQLSMLPHLQDLVSYSIQK [A15Q] as the variant, how does the protein stability index read?
**A.** 2.83

**Q.** With VTLELSQLSMLPHLRDLVSYSIQK [A15R] as the variant, how does the protein stability index read?
**A.** 2.64

**Q.** For VTLELSQLSMLPHLSDLVSYSIQK [A15S], which protein stability index is on record?
**A.** 2.73

**Q.** Which protein stability index does the source give for VTLELSQLSMLPHLTDLVSYSIQK [A15T] here?
**A.** 2.83

**Q.** Which protein stability index does the source give for VTLELSQLSMLPHLVDLVSYSIQK [A15V] here?
**A.** 3.02

**Q.** With VTLELSQLSMLPHLWDLVSYSIQK [A15W] as the variant, how does the protein stability index read?
**A.** 2.67

**Q.** Which protein stability index does the source give for VTLELSQLSMLPHLYDLVSYSIQK [A15Y] here?
**A.** 4.33

**Q.** For VTLELSQLSMLPHLAALVSYSIQK [D16A], which protein stability index is on record?
**A.** 3.1

**Q.** Which protein stability index does the source give for VTLELSQLSMLPHLACLVSYSIQK [D16C] here?
**A.** 3.86

**Q.** For VTLELSQLSMLPHLAELVSYSIQK [D16E], which protein stability index is on record?
**A.** 4.21

**Q.** With VTLELSQLSMLPHLAFLVSYSIQK [D16F] as the variant, how does the protein stability index read?
**A.** 3.5

**Q.** Which protein stability index does the source give for VTLELSQLSMLPHLAGLVSYSIQK [D16G] here?
**A.** 1.67

**Q.** For VTLELSQLSMLPHLAHLVSYSIQK [D16H], which protein stability index is on record?
**A.** 3

**Q.** For VTLELSQLSMLPHLAKLVSYSIQK [D16K], which protein stability index is on record?
**A.** 4.49

**Q.** For VTLELSQLSMLPHLALLVSYSIQK [D16L], which protein stability index is on record?
**A.** 3.77

**Q.** With VTLELSQLSMLPHLAMLVSYSIQK [D16M] as the variant, how does the protein stability index read?
**A.** 3.71

**Q.** Which protein stability index does the source give for VTLELSQLSMLPHLANLVSYSIQK [D16N] here?
**A.** 3.07

**Q.** With VTLELSQLSMLPHLAPLVSYSIQK [D16P] as the variant, how does the protein stability index read?
**A.** 3.09

**Q.** For VTLELSQLSMLPHLAQLVSYSIQK [D16Q], which protein stability index is on record?
**A.** 3.98

**Q.** Which protein stability index does the source give for VTLELSQLSMLPHLARLVSYSIQK [D16R] here?
**A.** 3.75

**Q.** With VTLELSQLSMLPHLASLVSYSIQK [D16S] as the variant, how does the protein stability index read?
**A.** 2.82

**Q.** Which protein stability index does the source give for VTLELSQLSMLPHLATLVSYSIQK [D16T] here?
**A.** 2.91

**Q.** Which protein stability index does the source give for VTLELSQLSMLPHLAVLVSYSIQK [D16V] here?
**A.** 3.99

**Q.** For VTLELSQLSMLPHLAWLVSYSIQK [D16W], which protein stability index is on record?
**A.** 2.26

**Q.** With VTLELSQLSMLPHLAYLVSYSIQK [D16Y] as the variant, how does the protein stability index read?
**A.** 2.31

**Q.** For VTLELSQLSMLPHLADAVSYSIQK [L17A], which protein stability index is on record?
**A.** 2.04

**Q.** With VTLELSQLSMLPHLADCVSYSIQK [L17C] as the variant, how does the protein stability index read?
**A.** 3.09

**Q.** With VTLELSQLSMLPHLADDVSYSIQK [L17D] as the variant, how does the protein stability index read?
**A.** 1.7

**Q.** For VTLELSQLSMLPHLADEVSYSIQK [L17E], which protein stability index is on record?
**A.** 1.87

**Q.** For VTLELSQLSMLPHLADGVSYSIQK [L17G], which protein stability index is on record?
**A.** 1.33

**Q.** For VTLELSQLSMLPHLADHVSYSIQK [L17H], which protein stability index is on record?
**A.** 1.98

**Q.** With VTLELSQLSMLPHLADKVSYSIQK [L17K] as the variant, how does the protein stability index read?
**A.** 1.68

**Q.** For VTLELSQLSMLPHLADMVSYSIQK [L17M], which protein stability index is on record?
**A.** 2.75

**Q.** For VTLELSQLSMLPHLADNVSYSIQK [L17N], which protein stability index is on record?
**A.** 1.77

**Q.** With VTLELSQLSMLPHLADPVSYSIQK [L17P] as the variant, how does the protein stability index read?
**A.** 2.77

**Q.** With VTLELSQLSMLPHLADQVSYSIQK [L17Q] as the variant, how does the protein stability index read?
**A.** 2.42

**Q.** With VTLELSQLSMLPHLADRVSYSIQK [L17R] as the variant, how does the protein stability index read?
**A.** 1.62

**Q.** With VTLELSQLSMLPHLADSVSYSIQK [L17S] as the variant, how does the protein stability index read?
**A.** 1.6

**Q.** For VTLELSQLSMLPHLADTVSYSIQK [L17T], which protein stability index is on record?
**A.** 2.47

**Q.** Which protein stability index does the source give for VTLELSQLSMLPHLADVVSYSIQK [L17V] here?
**A.** 1.66

**Q.** Which protein stability index does the source give for VTLELSQLSMLPHLADWVSYSIQK [L17W] here?
**A.** 3.14

**Q.** Which protein stability index does the source give for VTLELSQLSMLPHLADLASYSIQK [V18A] here?
**A.** 3.69

**Q.** Which protein stability index does the source give for VTLELSQLSMLPHLADLCSYSIQK [V18C] here?
**A.** 4.49

**Q.** For VTLELSQLSMLPHLADLDSYSIQK [V18D], which protein stability index is on record?
**A.** 2.24

**Q.** Which protein stability index does the source give for VTLELSQLSMLPHLADLESYSIQK [V18E] here?
**A.** 1.73

**Q.** With VTLELSQLSMLPHLADLFSYSIQK [V18F] as the variant, how does the protein stability index read?
**A.** 3.13

**Q.** Which protein stability index does the source give for VTLELSQLSMLPHLADLGSYSIQK [V18G] here?
**A.** 1.78

**Q.** For VTLELSQLSMLPHLADLHSYSIQK [V18H], which protein stability index is on record?
**A.** 2.04

**Q.** Which protein stability index does the source give for VTLELSQLSMLPHLADLISYSIQK [V18I] here?
**A.** 2.79

**Q.** Which protein stability index does the source give for VTLELSQLSMLPHLADLKSYSIQK [V18K] here?
**A.** 2.69

**Q.** Which protein stability index does the source give for VTLELSQLSMLPHLADLLSYSIQK [V18L] here?
**A.** 3.33

**Q.** For VTLELSQLSMLPHLADLMSYSIQK [V18M], which protein stability index is on record?
**A.** 2.99

**Q.** For VTLELSQLSMLPHLADLNSYSIQK [V18N], which protein stability index is on record?
**A.** 1.8

**Q.** For VTLELSQLSMLPHLADLPSYSIQK [V18P], which protein stability index is on record?
**A.** 1.88

**Q.** Which protein stability index does the source give for VTLELSQLSMLPHLADLQSYSIQK [V18Q] here?
**A.** 2.76

**Q.** For VTLELSQLSMLPHLADLRSYSIQK [V18R], which protein stability index is on record?
**A.** 2.57

**Q.** Which protein stability index does the source give for VTLELSQLSMLPHLADLSSYSIQK [V18S] here?
**A.** 2.94

**Q.** For VTLELSQLSMLPHLADLTSYSIQK [V18T], which protein stability index is on record?
**A.** 1.49

**Q.** Which protein stability index does the source give for VTLELSQLSMLPHLADLWSYSIQK [V18W] here?
**A.** 3.29

**Q.** Which protein stability index does the source give for VTLELSQLSMLPHLADLYSYSIQK [V18Y] here?
**A.** 3.48

**Q.** For VTLELSQLSMLPHLADLVAYSIQK [S19A], which protein stability index is on record?
**A.** 2.23

**Q.** For VTLELSQLSMLPHLADLVCYSIQK [S19C], which protein stability index is on record?
**A.** 2.33

**Q.** For VTLELSQLSMLPHLADLVDYSIQK [S19D], which protein stability index is on record?
**A.** 2.27

**Q.** For VTLELSQLSMLPHLADLVEYSIQK [S19E], which protein stability index is on record?
**A.** 2.05

**Q.** Which protein stability index does the source give for VTLELSQLSMLPHLADLVFYSIQK [S19F] here?
**A.** 3.49

**Q.** For VTLELSQLSMLPHLADLVGYSIQK [S19G], which protein stability index is on record?
**A.** 4.13

**Q.** With VTLELSQLSMLPHLADLVHYSIQK [S19H] as the variant, how does the protein stability index read?
**A.** 2.79

**Q.** For VTLELSQLSMLPHLADLVIYSIQK [S19I], which protein stability index is on record?
**A.** 2.76

**Q.** Which protein stability index does the source give for VTLELSQLSMLPHLADLVKYSIQK [S19K] here?
**A.** 1.68

**Q.** For VTLELSQLSMLPHLADLVLYSIQK [S19L], which protein stability index is on record?
**A.** 4.2

**Q.** Which protein stability index does the source give for VTLELSQLSMLPHLADLVMYSIQK [S19M] here?
**A.** 3.08

**Q.** With VTLELSQLSMLPHLADLVNYSIQK [S19N] as the variant, how does the protein stability index read?
**A.** 3.84

**Q.** Which protein stability index does the source give for VTLELSQLSMLPHLADLVPYSIQK [S19P] here?
**A.** 2.63

**Q.** For VTLELSQLSMLPHLADLVRYSIQK [S19R], which protein stability index is on record?
**A.** 3.25

**Q.** Which protein stability index does the source give for VTLELSQLSMLPHLADLVTYSIQK [S19T] here?
**A.** 3.23

**Q.** For VTLELSQLSMLPHLADLVVYSIQK [S19V], which protein stability index is on record?
**A.** 4.3

**Q.** With VTLELSQLSMLPHLADLVWYSIQK [S19W] as the variant, how does the protein stability index read?
**A.** 3.07

**Q.** Which protein stability index does the source give for VTLELSQLSMLPHLADLVYYSIQK [S19Y] here?
**A.** 2.42

**Q.** Which protein stability index does the source give for VTLELSQLSMLPHLADLVSASIQK [Y20A] here?
**A.** 1.94

**Q.** With VTLELSQLSMLPHLADLVSCSIQK [Y20C] as the variant, how does the protein stability index read?
**A.** 2.66

**Q.** With VTLELSQLSMLPHLADLVSDSIQK [Y20D] as the variant, how does the protein stability index read?
**A.** 1.35

**Q.** With VTLELSQLSMLPHLADLVSESIQK [Y20E] as the variant, how does the protein stability index read?
**A.** 2.97

**Q.** For VTLELSQLSMLPHLADLVSFSIQK [Y20F], which protein stability index is on record?
**A.** 2.41

**Q.** With VTLELSQLSMLPHLADLVSGSIQK [Y20G] as the variant, how does the protein stability index read?
**A.** 2.73

**Q.** Which protein stability index does the source give for VTLELSQLSMLPHLADLVSHSIQK [Y20H] here?
**A.** 3.24

**Q.** For VTLELSQLSMLPHLADLVSISIQK [Y20I], which protein stability index is on record?
**A.** 3.08

**Q.** With VTLELSQLSMLPHLADLVSKSIQK [Y20K] as the variant, how does the protein stability index read?
**A.** 2.33

**Q.** For VTLELSQLSMLPHLADLVSLSIQK [Y20L], which protein stability index is on record?
**A.** 3.69

Reference: the supplement of paper PMC10567573
